According to article PMC4117747, “The N-terminus of Mcm10 is important for interaction with the 9-1-1 clamp and in resistance to DNA damage” (Nucleic Acids Research, 2014):

Target: T1, Mcm10Δ150 (LexA fusion) (S. cerevisiae, UniProt P32354 151-571)
T1 construct: Mcm10, budding yeast, first 150 amino acids deleted; also called pBTM116-LEXA-mcm10Δ150; LexA-tagged Mcm10Δ150; source: yeast two-hybrid fusion (pBTM116); also overexpressed from the ADH1 promoter in yeast, in whole cell extract, for Co-IP
T1 sequence (looked up): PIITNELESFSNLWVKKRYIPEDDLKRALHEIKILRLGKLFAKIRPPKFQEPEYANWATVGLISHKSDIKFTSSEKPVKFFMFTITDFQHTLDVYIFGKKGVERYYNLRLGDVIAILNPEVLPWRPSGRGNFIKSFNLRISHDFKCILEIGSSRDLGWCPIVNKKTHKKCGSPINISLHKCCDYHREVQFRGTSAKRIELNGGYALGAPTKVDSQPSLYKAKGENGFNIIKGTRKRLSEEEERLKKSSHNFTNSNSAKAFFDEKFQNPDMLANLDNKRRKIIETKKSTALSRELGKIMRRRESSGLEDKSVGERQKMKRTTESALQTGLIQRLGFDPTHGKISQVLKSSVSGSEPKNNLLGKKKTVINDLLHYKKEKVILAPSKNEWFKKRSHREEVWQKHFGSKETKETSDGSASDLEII
Experiment: two-hybrid; yeast two-hybrid with pBTM116 (LexA) and pACT2 fusions; β-galactosidase activity in cell extracts, in triplicate from at least three clones
Conditions: partners not purified

reduction of binding relative to wild-type Mcm10: ~85%
B1: Mcm10 (LexA fusion, wild type) (natural protein, S. cerevisiae, UniProt P32354 1-571, looked up)
chain: MNDPREILAVDPYNNITSDEEDEQAIARELEFMERKRQALVERLKRKQEFKKPQDPNFEAIEVPQSPTKNRVKVGSHNATQQGTKFEGSNINEVRLSQLQQQPKPPASTTTYFMEKFQNAKKNEDKQIAKFESMMNARVHTFSTDEKKYVPIITNELESFSNLWVKKRYIPEDDLKRALHEIKILRLGKLFAKIRPPKFQEPEYANWATVGLISHKSDIKFTSSEKPVKFFMFTITDFQHTLDVYIFGKKGVERYYNLRLGDVIAILNPEVLPWRPSGRGNFIKSFNLRISHDFKCILEIGSSRDLGWCPIVNKKTHKKCGSPINISLHKCCDYHREVQFRGTSAKRIELNGGYALGAPTKVDSQPSLYKAKGENGFNIIKGTRKRLSEEEERLKKSSHNFTNSNSAKAFFDEKFQNPDMLANLDNKRRKIIETKKSTALSRELGKIMRRRESSGLEDKSVGERQKMKRTTESALQTGLIQRLGFDPTHGKISQVLKSSVSGSEPKNNLLGKKKTVINDLLHYKKEKVILAPSKNEWFKKRSHREEVWQKHFGSKETKETSDGSASDLEII
notes: Mcm10, budding yeast, called full-length in the Co-IP with LexA-tagged constructs; also called LexA-tagged Mcm10; full-length Mcm10; source: yeast two-hybrid fusion (pBTM116); also overexpressed in yeast, in whole cell extract, for Co-IP
